The source of these data is patent US20230125550A1 (ARCELLX, published 2023).

Residue numbers refer to the chain shown, from its start.

T1: recombinant human CD123-Fc (human, UniProt P26951 19-305)
T1 construct: not shown: Fc part of CD123-Fc
T1 sequence: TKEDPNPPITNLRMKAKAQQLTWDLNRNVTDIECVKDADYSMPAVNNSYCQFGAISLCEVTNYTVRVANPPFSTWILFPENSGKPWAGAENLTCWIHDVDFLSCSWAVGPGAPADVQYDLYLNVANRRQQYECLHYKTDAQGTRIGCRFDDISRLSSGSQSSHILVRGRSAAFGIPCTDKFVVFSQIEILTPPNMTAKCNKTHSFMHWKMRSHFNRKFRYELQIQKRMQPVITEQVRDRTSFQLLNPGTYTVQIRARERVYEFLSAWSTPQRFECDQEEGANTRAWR

B1: SEQ ID NO: 512 (designed binder)
chain: MGSWWLFKEQLALIKYNLEALGGSEAELADFESWIAEFEHQLQEYKGKGNPEVEALRKEAAAIRDELQAYRHN
notes: D domain, on phage
B2: SEQ ID NO: 505 (designed binder)
chain: MGSWFMFKQELAWIKEDLEALGGSEAELADFEWDIAEFEWDLQYYKGKGNPEVEALRKEAAAIRDELQAYRHN
notes: D domain, on phage
B3: SEQ ID NO: 506 (designed binder)
chain: B2 chain with F5Q, M6I, Q9G, W13Y, E16Q, D17Y, D30F, W33F, W40E
notes: D domain, on phage
B4: SEQ ID NO: 532 (designed binder)
chain: MGSWFEFKWTLALIKQELEALGGSEAELADFEQEIAEFEWWLQTYKGKGNPEVEALRKEAAAIRDELQAYRHN
notes: D domain, on phage
B5: SEQ ID NO: 539 (designed binder)
chain: MGSWSEFDSRLDAIAYRLFALGGSEAELAQFEWIIADFEEDLQMYKGKGNPEVEALFSEAYAIEIELNAYRHN
notes: D domain, on phage
B6: SEQ ID NO: 524 (designed binder)
chain: MGSWDFFKYDLANINEWLEALGGSEAELADFEYGIADFELWLQDYKGKGNPEVEALRKEAAAIRDELQAYRHN
notes: D domain, on phage
B7: SEQ ID NO: 523 (designed binder)
chain: MGSWDEFKEDLAHIKTDLEALGGSEAELALFEDEIADFEMYLQHYKGKGNPEVEALRKEAAAIRDELQAYRHN
notes: D domain, on phage
B8: SEQ ID NO: 527 (designed binder)
chain: MGSWVVFKQDLADINHQLEALGGSEAELAWFEWEIADFEWELQHYKGKGNPEVEALRKEAAAIRDELQAYRHN
notes: D domain, on phage
B9: SEQ ID NO: 526 (designed binder)
chain: MGSWAEFKHDLADIKRELEALGGSEAELAWFELSIAFFEDELQHYKGKGNPEVEALRKEAAAIRDELQAYRHN
notes: D domain, on phage
B10: SEQ ID NO: 513 (designed binder)
chain: MGSWHVFKTELADIKFYLEALGGSEAELAMFELWIAEFEHELQDYKGKGNPEVEALRKEAAAIRDELQAYRHN
notes: D domain, on phage
B11: SEQ ID NO: 538 (designed binder)
chain: MGSWYEFDMRLDAIWERLTALGGSEAELADFEQYIAEFERQLQDYKGKGNPEVEALFDEAWAIEDELYAYRHN
notes: D domain, on phage
B12: SEQ ID NO: 534 (designed binder)
chain: MGSWAEFKQRLAAIKTRLEALGGSEAELAAFEWEIVAFFSELFAYKGKGNPEVEALRDEAIAIETELVAYRHN
notes: D domain, on phage
B13: SEQ ID NO: 522 (designed binder)
chain: MGSWWDFKDWLAEIKHDLEALGGSEAELALFESEIADFEFGLQWYKGKGNPEVEALRKEAAAIRDELQAYRHN
notes: D domain, on phage
B14: SEQ ID NO: 536 (designed binder)
chain: MGSWWEFQFRLYAIDQRLLALGGSEAELAEFEQDIADFEWMLQDYKGKGNPEVEALMLEADAIEAELKAYRHN
notes: D domain, on phage
B15: SEQ ID NO: 516 (designed binder)
chain: MGSWTWFKDNLAWIKEDLEALGGSEAELAWFELEIASFETALQDYKGKGNPEVEALRKEAAAIRDELQAYRHN
notes: D domain, on phage
B16: SEQ ID NO: 517 (designed binder)
chain: B15 chain with W6Y, D9N, N10D, W13G, W30Q, L33F, S37E, T40W, A41L
notes: D domain, on phage
B17: SEQ ID NO: 518 (designed binder)
chain: B15 chain with D9W, N10D, W13D, E16G, W30F, L33E, S37E, T40W, A41R
notes: D domain, on phage
B18: SEQ ID NO: 530 (designed binder)
chain: MGSWSWFQWDLAGIKDHLEALGGSEAELAEFESEIAYFEDELQWYKGKGNPEVEALRKEAAAIRDELQAYRHN
notes: D domain, on phage
B19: SEQ ID NO: 531 (designed binder)
chain: MGSWTEFKGELAEIKWILEALGGSEAELAFFEDEIAAFEWDLQKYKGKGNPEVEALRKEAAAIRDELQAYRHN
notes: D domain, on phage
B20: SEQ ID NO: 537 (designed binder)
chain: MGSWYEFDHRLDAIYQRLWALGGSEAELAEFEYGIAEFEEYLQDYKGKGNPEVEALISEAWAIEWELSAYRHN
notes: D domain, on phage
B21: SEQ ID NO: 519 (designed binder)
chain: MGSWLYFKEYLADIKSDLEALGGSEAELAWFEYEIADFEEQLQYYKGKGNPEVEALRKEAAAIRDELQAYRHN
notes: D domain, on phage
B22: SEQ ID NO: 535 (designed binder)
chain: MGSWWEFDHRLTAIDTRLQALGGSEAELAEFESSIAEFEWWLQDYKGKGNPEVEALFAEAEAIYVELDAYRHN
notes: D domain, on phage
B23: SEQ ID NO: 525 (designed binder)
chain: MGSWYQFKDDLAHIKHLLEALGGSEAELAVFEYIIADFESFLQIYKGKGNPEVEALRKEAAAIRDELQAYRHN
notes: D domain, on phage
B24: SEQ ID NO: 533 (designed binder)
chain: MGSWAEFKQRLAAIKTRLEALGGSEAELAAFMDEIMAFEWELWAYKGKGNPEVEALMNEAFAIDVELYAYRHN
notes: D domain, on phage
B25: SEQ ID NO: 510 (designed binder)
chain: MGSWFEFKDYLADIKWDLEALGGSEAELAIFEHDIAYFEHNLQQYKGKGNPEVEALRKEAAAIRDELQAYRHN
notes: D domain, on phage
B26: SEQ ID NO: 511 (designed binder)
chain: B25 chain with F5V, E6R, Y10F, W16M, I30D, H33Y, D34H, Y37E, Q44E
notes: D domain, on phage
B27: SEQ ID NO: 502 (designed binder)
chain: MGSWHWFKIVLADIKDGLEALGGSEAELAYFETTIADFEMDLQHYKGKGNPEVEALRKEAAAIRDELQAYRHN
notes: D domain, on phage
B28: SEQ ID NO: 503 (designed binder)
chain: B27 chain with Q43H
notes: D domain, on phage
B29: SEQ ID NO: 497 (designed binder)
chain: MGSWYYFKDELADIKWDLEALGGSEAELAWFEMLIAQFELDLQWYKGKGNPEVEALRKEAAAIRDELQAYRHN
notes: D domain, on phage
B30: SEQ ID NO: 499 (designed binder)
chain: B29 chain with Y6Q, D9H, E10D, W16Y, D17G, M33D, L34D, Q37D, W44Y
notes: D domain, on phage
B31: SEQ ID NO: 498 (designed binder)
chain: B29 chain with Y5M, E10T, D17Y, W30F, M33D, L34W, Q37E, L40D, W44V
notes: D domain, on phage
B32: SEQ ID NO: 509 (designed binder)
chain: B2 chain with F5Y, M6Q, Q9T, E16D, D30W, D34V, E37D, W40D, Y44F
notes: D domain, on phage
B33: SEQ ID NO: 500 (designed binder)
chain: B8 chain with V5Y, Q9D, N15K, H16Y, Q17M, D37N, W40F, E41D, H44Y
notes: D domain, on phage
B34: SEQ ID NO: 504 (designed binder)
chain: MGSWFMFKEELADIKDWLEALGGSEAELASFESYIAWFEQDLQWYKGKGNPEVEALRKEAAAIRDELQAYRHN
notes: D domain, on phage
B35: SEQ ID NO: 528 (designed binder)
chain: MGSWFQFKEFLAMITHNLEALGGSEAELAEFEHDIALFESELQQYKGKGNPEVEALRKEAAAIRDELQAYRHN
notes: D domain, on phage
B36: SEQ ID NO: 501 (designed binder)
chain: MGSWNFFKYDLADIMAYLEALGGSEAELAFFEDEIANFEHDLQKYKGKGNPEVEALRKEAAAIRDELQAYRHN
notes: D domain, on phage
B37: SEQ ID NO: 515 (designed binder)
chain: MGSWGWFKHELAFIKADLEALGGSEAELAWFEEEIAEFEYELQFYKGKGNPEVEALRKEAAAIRDELQAYRHN
notes: D domain, on phage
B38: SEQ ID NO: 514 (designed binder)
chain: MGSWIWFKDWLADIKDLLEALGGSEAELAEFEYDIALFEDQLQAYKGKGNPEVEALRKEAAAIRDELQAYRHN
notes: D domain, on phage
B39: SEQ ID NO: 520 (designed binder)
chain: MGSWHWFKEELAEIKEDLVALGGSEAELAWFEYDIAMFELSLQNYKGKGNPEVEALRKEAAAIRDELQAYRHN
notes: D domain, on phage
B40: SEQ ID NO: 521 (designed binder)
chain: B39 chain with H5N, W6D, E13W, E16F, V19E, Y33E, L40Q, S41Q, N44A
notes: D domain, on phage
B41: SEQ ID NO: 529 (designed binder)
chain: MGSWHWFKEDLAMITDVLEALGGSEAELAAFESEIAVFEADLQYYKGKGNPEVEALRKEAAAIRDELQAYRHN
notes: D domain, on phage
B42: SEQ ID NO: 507 (designed binder)
chain: MGSWDFFKEELAEIKHYLEALGGSEAELAFFEFWIADFEQDLQEYKGKGNPEVEALRKEAAAIRDELQAYRHN
notes: D domain, on phage
B43: SEQ ID NO: 508 (designed binder)
chain: B42 chain with D5F, F6N, E13V, H16F, Y17Q, F33W, W34V, Q40D
notes: D domain, on phage

This assay addresses T1, recombinant human CD123-Fc. Nature of the assay: phage ELISA, captured CD123-Fc. Summed up:
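Phage from BCMA panning colonies were rescued with VCSM13 helper phage and diluted 5× in blocking buffer. Plates coated with anti-human IgG1-Fc captured 5 nM target-Fc or IgG1-Fc, and binding was detected with HRP anti-M13. Ratio = A450 target/A450 IgG1-Fc, averaged over the clone's wells.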
In the case of B1, the ELISA_avg is 4.1 ratio A450 target/IgG1-Fc.

In the case of B2, the ELISA_avg was found to be 7.2 ratio A450 target/IgG1-Fc.

Regarding B3, the ELISA_avg came to 4.7 ratio A450 target/IgG1-Fc.

Consider B4, for which the ELISA_avg came to 4.9 ratio A450 target/IgG1-Fc.

B5: the ELISA_avg was 4.3 ratio A450 target/IgG1-Fc.

For B6, the ELISA_avg stood at 5.5 ratio A450 target/IgG1-Fc.

As to B7, the ELISA_avg turned out to be 6.3 ratio A450 target/IgG1-Fc.

On to B8, for which the ELISA_avg was 3.6 ratio A450 target/IgG1-Fc.

With B9, the ELISA_avg was 3.3 ratio A450 target/IgG1-Fc.

Consider B10, for which the ELISA_avg stood at 5.4 ratio A450 target/IgG1-Fc.

In the case of B11, the ELISA_avg was 13.7 ratio A450 target/IgG1-Fc.

As to B12, the ELISA_avg is 3.6 ratio A450 target/IgG1-Fc.

Turning to B13, the ELISA_avg stood at 4.2 ratio A450 target/IgG1-Fc.

With B14, the ELISA_avg was 3.1 ratio A450 target/IgG1-Fc.

B15: the ELISA_avg is 6.9 ratio A450 target/IgG1-Fc.

For B16, the ELISA_avg amounted to 3.6 ratio A450 target/IgG1-Fc.

Take B17: the ELISA_avg came out at 5.9 ratio A450 target/IgG1-Fc.

Turning to B18, the ELISA_avg was found to be 12.9 ratio A450 target/IgG1-Fc.

Take B19: the ELISA_avg stood at 8.2 ratio A450 target/IgG1-Fc.

For the molecule B20, the ELISA_avg came to 4.6 ratio A450 target/IgG1-Fc.

On to B21, for which the ELISA_avg came to 3.7 ratio A450 target/IgG1-Fc.

Take B22: the ELISA_avg was found to be 4.3 ratio A450 target/IgG1-Fc.

Take B23: the ELISA_avg worked out at 4 ratio A450 target/IgG1-Fc.

On to B24, for which the ELISA_avg stood at 3.4 ratio A450 target/IgG1-Fc.

Consider B25, for which the ELISA_avg is 3.8 ratio A450 target/IgG1-Fc.

With B26, the ELISA_avg was found to be 5.8 ratio A450 target/IgG1-Fc.

Consider B27, for which the ELISA_avg was 4.3 ratio A450 target/IgG1-Fc.

Regarding B28, the ELISA_avg was 3.5 ratio A450 target/IgG1-Fc.

Take B29: the ELISA_avg came to 4 ratio A450 target/IgG1-Fc.

B30: the ELISA_avg turned out to be 4.7 ratio A450 target/IgG1-Fc.

With B31, the ELISA_avg came to 3.1 ratio A450 target/IgG1-Fc.

Turning to B32, the ELISA_avg was 6.6 ratio A450 target/IgG1-Fc.

On to B33, for which the ELISA_avg amounted to 3.8 ratio A450 target/IgG1-Fc.

For the molecule B34, the ELISA_avg is 5.7 ratio A450 target/IgG1-Fc.

Take B35: the ELISA_avg came to 3.1 ratio A450 target/IgG1-Fc.

B36: the ELISA_avg is 4.4 ratio A450 target/IgG1-Fc.

For B37, the ELISA_avg turned out to be 3.3 ratio A450 target/IgG1-Fc.

As to B38, the ELISA_avg was 7.3 ratio A450 target/IgG1-Fc.

With B39, the ELISA_avg was determined as 3.1 ratio A450 target/IgG1-Fc.

As to B40, the ELISA_avg came to 3.8 ratio A450 target/IgG1-Fc.

As to B41, the ELISA_avg came to 5.2 ratio A450 target/IgG1-Fc.

Consider B42, for which the ELISA_avg worked out at 3.7 ratio A450 target/IgG1-Fc.

On to B43, for which the ELISA_avg was determined as 6.1 ratio A450 target/IgG1-Fc.
